{"source": "the DeepSol protein solubility set", "data": [{"experiment": "soluble on expression in E. coli; label from the status in PepcDB or PDB records", "values": [{"sequence": "SARGRKMSKPRAVEAAAAAAAVAATAPGPEMVERRGPGRPRTDGENVFTGQSKIYSYMSPNKCSGMRFPLQEENSVTHHEVKCQGKPLAGIYRKREEKRNAGNAVRSAMKSEEQKIKDARKGPLVPFPNQKSEAAEPPKTPPSSCDSTNAAIAKQALKKPIKGKQAPRKKAQGKTQQNRKLTDFYPVRRSSRKSKAELQSEERKRIDELIESGKEEGMKIDLIDGKGRGVIATKQFSRGDFVVEYHGDLIEITDAKKREALYAQDPSTGCYMYYFQYLSKTYCVDATRETNRLGRLINHSKCGNCQTKLHDIDGVRHLILIASRDIAAGEELLYDYGDRSKASIEAHPWLKH", "soluble on expression in E. coli": "not soluble"}, {"sequence": "SARRYDELPHYPGIVDGPAALASFPETVPAVPGPYGPHRPPQPLPPGLDSDGLKREKDEIYGHPLFPLLALVFEKCELATCSPRDGAGAGLGTPPGGDVCSSDSFNEDIAAFAKQVRSERPLFSSNPELDNLMIQAIQVLRFHLLELEKGKMPIDLVIEDRDGGCREDFEDYPASCPSLPDQNNMWIRDHEDSGSVHLGTPGPSSGGLASQSGDNSSDQGDGLDTSVASPSSGGEDEDLDQERRRNKKRGIFPKVATNIMRAWLFQHLSHPYPSEEQKKQLAQDTGLTILQVNNWFINARRRIVQPMIDQSNRTGQGAAFSPEGQPIGGYTETQPHVAVRPPGSVGMSLNLEGEWHYL", "soluble on expression in E. coli": "soluble"}, {"sequence": "SAVERVEILRDGAAAQYGSDAIAGVVNIILKAKSTGGGIAYQYGGYTQGDGDQQKILGWKSFALPNDGSVTVAFDAGKRDAANNTLPDSRKFYNSSSSTNAQYNDQNTPYRTWRFGSPEIKDQINLSYNADLPLADDTSLYSFGTYGHRKTIGEGFYEPSTATAAVNQSIYYKERYPDGRIPLSIVTVDDFALTAGAKKGDQKTGKLDGFVTYGRNKVHTDQDNGINPSYGSGSPSSYSLGDNIFSQLNTGLDYSLDANTSWFYHPITVSTGILYRWEQYQQVAGDPVAYTRGPYYNVTTAPEIYSGITDADQRKIDRNVYGAYLDLETEIVKDLNVGVALRSEKYSDFGNTTNGKLTLKYDFDPKLNLRGSASTGYRAPS", "soluble on expression in E. coli": "not soluble"}, {"sequence": "SDDREMDDGRWKASALRVPLQVSSAVIKQEVVTRLAPDPVPLTEGAIGIFLSGTEPESGQEDSGYKVIDNRKYVYSEGHWGPPTANDTIYLVGNDADVCAYYPYKDSYTDKTVIPLQSQDYVETEDIYYALNTMINGFTPAITFDMVHAYSLVELKISRENYFMPCEISKITLKNSNLIKKGTINIAVDGSIHSSETGNYDLTTVTDASPHTLSVGESYVCRVLMIPVPLKIERTDAEGGEFGLSVSLVIDGQQMLVEIPYSELGEFRQGEKYVIGLKIKGTEIVPTVKALEWEDEEVNGGNKYPVE", "soluble on expression in E. coli": "soluble"}, {"sequence": "SDLPDSASRVFCGRILSMVNTDDVNAIILAQKNMLDRFEKTNEMLLNFNNLSSARLQQMSERFLHHTRTLVEMKRDLDSIFRRIRTLKGKLARQHPEAFSHIPEASFLEEEDEDPIPPSTTTTIATSEQSTGSCDTSPDTVSPSLSPGFEDLSHVQAGSPAINGRSQTDDEEMTGE", "soluble on expression in E. coli": "soluble"}, {"sequence": "SDNISLEYFEEAVCYMLQHPQVKGPGIGLLGISLGADICLSMASFLKNVSATVSINGSGISGNTAINYKHSSIPPLGYDLRRIKVAFSGLVDIVDIRNALVGGYKNPSMIPIEKAQGPILLIVGQDDHNWRSELYAQTVSERLQAHGKEKPQIICYPGTGHYIEPPYFPLCPASLHRLLNKHVIWGGEPRAHSKAQEDAWKQILAFFCKHLGGTQKTAVPKL", "soluble on expression in E. coli": "soluble"}, {"sequence": "SDWKEVLRRRLATPNTCPNKKKSEQELKDEEMDLFTKYYSEWKGGRKNTNEFYKTIPRFYYRLPAEDEVLLQKLREESRAVFLQRKSRELLDNEELQNLWFLLDKHQTPPMIGEEAMINYENFLKVGEKAGAKCKQFFTAKVFAKLLHTDSYGRISIMQFFNYVMRKVWLHQTRIGLSLYDVAGQGYLRESDLENYILELIPTLPQLDGLEKSFYSFYVCTAVRKFFFFLDPLRTGKIKIQDILACSFLDDLLELRDEELSKESQETNWFSAPSALRVYGQYLNLDKDHNGMLSKEELSRYGTATMTNVFLDRVFQECLTYDGEMDYKTYLDFVLALENRKEPAALQYIFKLLDIENKGYLNVFSLNYFFRAIQELMKIHGQDPVSFQDVKDEIFDMVKPKDPLKISLQDLINSNQGDTVTTILIDLNGFWTYENREALVANDSENSADLDDT", "soluble on expression in E. coli": "soluble"}, {"sequence": "SEDEWQCTECKKFNSPSKRYCFRCWALRKDWYSDCSKLTH", "soluble on expression in E. coli": "soluble"}, {"sequence": "SEDSGKTFSSEEEEANYWKDLAMTYKQRAENTQEELREFQEGSREYEAELETQLQQIETRNRDLLSENNRLRMELETIKEKFEVQHSEGYRQISALEDDLAQTKAIKDQLQKYIRELEQANDDLERAKRATIMSLEDFEQRLNQAIERNAFLESELDEKENLLESVQRLKDEARDLRQELAVQQKQEKPRTPMPSSVEAERTDTAVQATGSVPSTPIAHRGPSSSLNTPGSFRRGLDDSTGGTPLTPAARISALNIVGDLLRKVGALESKLASCRNLVYDQSPNRTGGPASGRSSKNRDGGERRPSSTSVPLGDKGLDTSCRWLSKSTTRSSSSC", "soluble on expression in E. coli": "soluble"}, {"sequence": "SEEAGSVALEELVEKEKDRFFSGVDYIVISDNLWISQRKPAITYGTRGNSYFMVEVKCRDQDFHSGTFGGILHEPMADLVALLGSLVDSSGHILVPGIYDEVVPLTEEEINTYKAIHLDLEEYRNSSRVEKFLFDTKEEILMHLWRYPSLSIHGIEGAFDEPGTKTVIPGRVIGKFSIRLVPHMNVSAVEKQVTRHLEDVFSKRNSSNKMVVSMTLGLHPWIANIDDTQYLAAKRAIRTVFGTEPDMIRDGSTIPIAKMFQEIVHKSVVLIPLGAVDDGEHSQNEKINRWNYIEGTKLFAAFFLEMAQLH", "soluble on expression in E. coli": "soluble"}, {"sequence": "SENVPFASKERADIFSMRTLIDFGGIAILHAYQSRISEYIAEKELSAMNVILKSQYDQYRNYQDSLDLIQMKYHDLKHQITALRAESDAEKRKKWIDAMEEEVSAFENMSKTGNQVLDTILAAKIFHCRKNHIQITCVADGKLLDFIHVTDLCSIFGNALDNAIEHVIMIPEAEKRLIHLTVSAKKSFVFIKIENYCEDKIQKNENDLITTTKADRQNHGFGLKSIRTVVEKYNGSVDFGVDQNWFELKILLPRVM", "soluble on expression in E. coli": "not soluble"}, {"sequence": "SEPIYEEYLANHGTIVKPYYWLSFSLDCSNCPYHIRTGEEARVSLTEFCQIFGFPYGTTFPQTKHLTFYELKTSSGSLVQKGHASSCTGNYIHPESMLFEMNGYLDSAIYNNDSIRHIILYSNNSPCNEANHCCISKMYNFLITYPGITLSIYFSQLYHTEMDFPASAWNREALRSLASLWPRVVLSPISGGIWHSVLHSFISGVSGSHVFQPILTGRALADRHNAYEINAITGVKPYFTDVLLQTKRNPNTKAQEALESYPLNNAFPGQFFQMPSGQLQPNLPPDLRAPVVFVLVPLRDLPPMHMGQNPNKPRNIVRHLNMPQMSFQETKDLGRLPTGRSVEIVEITEQFASSKEADEKKKKKGKK", "soluble on expression in E. coli": "soluble"}, {"sequence": "SESVHPGNHNLDTLSHSQISKEEETFPSHQLYTFQAPWLVYGLAWCNRVNSPYSLALSSFIESCNNKIILVELNDKTEDFQQVVQVDHPYPASKVAFIPDYSGTRPQLLATSGDALRIWEWSNDNLKSKALLSTNPESEYCAPLTSFDWCEVNPATLCTSSVDTTCTIWDVETQQAKTQLIAHDKEVYDVAFQTGTDKIFASAGADASVRCFDLRNLETSTILYEIPDDSTPILRIGWNKKEPNYMAALVMDSSKFLLLDIRVPSLPVAEMEHKLTNHKRHKSVNAIHWAPHSSSHICSAGDDCYTLIWDISAIPRPIEEPILSYQSDREVNNLQWSAADPDWIAIAAGNKMQILRV", "soluble on expression in E. coli": "soluble"}, {"sequence": "SETILEQQRRYHEEKERLMDVMAKEMLTKKSTLRDQINSDHRTRAMQDRYMEVSGNLRDLYDDKDGLRKEELNAISGPNEFAEFYNRLKQIKEFHRKHPNEICVPMSVEFEELLKARENPSEEAQNLVEFTDEEGYGRYLDLHDCYLKYINLKASEKLDYITYLSIFDQLFDIPKERKNAEYKRYLEMLLEYLQDYTDRVKPLQDQNELFGKIQAEFEKKWENGTFPGWPKETSSALTHAGAHLDLSAFSSWEELASLGLDRLKSALLALGLKCGGTLEERAQRLFSTKGKSLESLDTSLFAKNPKSKGTKRDTERNKDIAFLEAQIYEYVEILGEQRHLTHENVQRKQARTGEEREEEEEEQISESESEDEENEIIYNPKNLPLGWDGKPIPYWLYKLHGLNINYNCEICGNYTYRGPKAFQRHFAEWRHAHGMRCLGIPNTAHFANVTQIEDAVSLWAKLKLQKASERWQPDTEEEYEDSSGNVVNKKTYEDLKRQGLL", "soluble on expression in E. coli": "soluble"}]}]}
